Data on eleven molecules can be found in patent US20240392024A1 (SHANGHAI CELGEN BIO PHARMACEUTICAL, published 2024).

To fix the notation:
T1: TNFR2-His (Sino Biological, 10417-H08H, NP_001057.1 Met1-Asp257, with multi-histidine tag expressed on … (human, UniProt P20333 23-257))
T1 construct: range 1-257; Bought protein; also called recombinant human TNFR2 protein; TNFR2-His antigen; not shown: C-terminal multi-histidine tag
T1 sequence (looked up): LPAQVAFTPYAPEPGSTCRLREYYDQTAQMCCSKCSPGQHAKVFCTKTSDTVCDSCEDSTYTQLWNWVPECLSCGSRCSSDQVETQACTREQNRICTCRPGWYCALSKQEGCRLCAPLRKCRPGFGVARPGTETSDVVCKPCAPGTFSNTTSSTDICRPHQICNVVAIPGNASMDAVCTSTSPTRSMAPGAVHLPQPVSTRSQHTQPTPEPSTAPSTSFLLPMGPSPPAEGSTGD

T2: recombinant human TNFR2 antigen (Kangdai, batch number A100114U) (human, UniProt P20333 23-257)
T2 construct: also called hTNFR2; TNFR2-FC (Shanghai Saijin Biopharmaceutical Co., Ltd., Qiangke, catalog number A100114U); not shown: Fc part of the bought TNFR2-FC
T2 sequence (looked up): T1 sequence (looked up)

T3: human TNFR2 on the cell membrane (human, UniProt P20333 23-461)
T3 construct: whole, on cells; One molecule for all cell formats; also called TNFR2-CHO cells; CHO-TNFR2
T3 sequence (looked up): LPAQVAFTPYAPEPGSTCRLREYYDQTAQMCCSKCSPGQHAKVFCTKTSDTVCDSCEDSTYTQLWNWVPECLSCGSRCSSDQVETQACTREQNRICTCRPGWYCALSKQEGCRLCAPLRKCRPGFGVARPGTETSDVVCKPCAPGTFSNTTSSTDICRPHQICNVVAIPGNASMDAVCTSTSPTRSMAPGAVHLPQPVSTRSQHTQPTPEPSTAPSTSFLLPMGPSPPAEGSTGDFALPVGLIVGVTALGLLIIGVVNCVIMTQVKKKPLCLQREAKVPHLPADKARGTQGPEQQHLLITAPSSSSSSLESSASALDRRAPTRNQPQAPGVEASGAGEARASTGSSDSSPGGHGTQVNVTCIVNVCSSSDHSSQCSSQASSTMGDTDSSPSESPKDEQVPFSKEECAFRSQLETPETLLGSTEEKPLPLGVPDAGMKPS

T4: recombinant cynomolgus monkey TNFR2 (Cyno. TNFR2) (Sino Biological, 90102-C021) (cynomolgus monkey, UniProt A0A2K5VET2 132-366)
T4 sequence: T1 sequence (looked up) with S16G, S36P, P117Q, N164H, E210A, S216G, M223V

B1: 11G2huVH2 + huVL2(P07267) (antibody, V domains shown)
VH: QVQLVQSGAEVKKPGASVKVSCKASGYTFITYDINWVRQAPGQGLEWIGWIYPRDGNTQFNENFKGRVTMTTDTSTSTAYMELRSLRSDDTAVYYCARGDRDYGYFDVWGQGTTVTVSS
VL: DIQMTQSPSSLSASVGDRVTITCRASQDISNYLNWYQQKPGKAPKLLIYFKSKLHSGVPSRFSGSGSGTDFTLTISSLQPEDFATYYCQQGNTLPLTFGGGTKLEIK
notes: Humanized 11G2
B2: 11G2huVH3 + huVL1(P07264) (antibody, V domains shown)
VH: B1 VH with P41T, K65Q, T72R, D73N, T76I, R84S, D89E
VL: B1 VL with Q6P, P8T, P44V, I106L
notes: Humanized 11G2
B3: 11G2huVH3 + huVL2(P07268) (antibody, V domains shown)
VH: B1 VH with P41T, K65Q, T72R, D73N, T76I, R84S, D89E
VL: B1 VL
notes: Humanized 11G2
B4: 11G2huVH4 + huVL1(P07265) (antibody, V domains shown)
VH: B1 VH with F60Y, N61A, E62Q, N63K, K65Q
VL: B1 VL with Q6P, P8T, P44V, I106L
notes: Humanized 11G2
B5: 11G2huVH1 + huVL1(P07262) (antibody, V domains shown)
VH: B1 VH with V20L, R67K, V68A, T72V, T74E, L83V
VL: B1 VL with Q6P, P8T, P44V, I106L
notes: Humanized 11G2
B6: 11G2huVH5 + huVL1(P07266) (antibody, V domains shown)
VH: QVQLVQSGAEVKKPGASVKVSCKASGYTFITYDINWVRQATGQGLEWIGWIYPRDGNTQYAQKFQGRVTMTRNTSISTAYMELSSLRSEDTAVYYCARGDRDYGYFDVWGQGTTVTVSS
VL: B1 VL with Q6P, P8T, P44V, I106L
notes: Humanized 11G2
B7: 11G2huVH2 + huVL1(P07263) (antibody, V domains shown)
VH: B1 VH
VL: B1 VL with Q6P, P8T, P44V, I106L
notes: Humanized 11G2
B8: anti-human TNFR2 mouse monoclonal antibody 18A2 (antibody, V domains shown)
VH: DVQLQESGPGLVKPSQSLSLTCSVTGYSITSGYYWNWIRQFPGNKLEWMGYISYDGSNNYNPSLKKRISITRDTSKNQFFLKLNSVTTEDTATYYCTGGSGTSWGQGTLVTVSA
VL: DIVMTQSHKFMSTSVGDRVSITCKASQDVTTGIAWYQQKPGQSPKLLIYSASNRFTGVPDRFTGSGSGTDFTFTISSVQAEDLAVYFCQQHYSTPFTFGSGTKLEIQ
notes: also called 18A12
B9: 12E12-huVH7 + huVL4(P08941) (antibody, V domains shown)
VH: QVQLVQSGAEVKKPGASVKVSCKASGYTITDFYIHWVRQAPGKGLEWMGRVDPEDGNTEYAQKFQGRVTMTTDTSTDTAYMELSSLRSEDTAVYYCSTWDGFSYFDYWGQGTTVTVSS
VL: EAVVTQSPATLSLSPGERATLSCRSSTGPVTTNNYANWVQQKPGQAFRGLIGGTNDRAPGIPARFSGSGSGTDTTLTISSLQPEDFAVYYCALWYRNHWVFGGGTKLEIK
notes: Humanized 12E12
B10: 12E12-huVH7 + huVL2(P08938) (antibody, V domains shown)
VH: B9 VH
VL: QAVVTQEPSLTVSPGGTVTLTCRSSTGPVTTNNYANWVQQKPGQAFRGLIGGTNDRAPGVPARFSGSLLGGKAALTLSGAQPEDEAEYYCALWYRNHWVFGGGTKLTVL
notes: Humanized 12E12
B11: 12E12-huVH8 + huVL4(P08942) (antibody, V domains shown)
VH: B9 VH with Q1E, S17T, V20I, A24V, R38Q, Q62P, K63N, G66D, M70I, T72A
VL: B9 VL
notes: Humanized 12E12

Numbering of substitutions follows the chain as printed. Values joined by “and” are separate entries in the source; they are usually repeats but may differ in a detail not shown here. Equal values may be shown once.

The first experiment has as its target T1, TNFR2-His (Sino Biological, 10417-H08H, …). The experiment in a line: ELISA, coated TNFR2-His. The method in brief: (§1)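 Recombinant human TNFR2 with a C-terminal His tag was coated onto plates, which were then blocked. Antibodies in serial dilution were incubated on the plates, followed by an enzyme-labelled anti-IgG secondary antibody. After TMB development, plates were read on a microplate reader, and EC50 was derived from the dilution series.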
B1 had an EC50 of 0.282 nM.
In the case of B2, the concentration for a half-maximal effect (EC50) worked out at 0.328 nM.
On to B3, for which the EC50 worked out at 0.271 nM.
With B4, it took 0.286 nM to reach a half-maximal effect (EC50).
As to B5, a half-maximal effect (EC50) was put at 0.095 nM.
On the same count and under the same terms, to B6 belongs 0.094 nM; to B7, 0.336 nM.

In another experiment the target is T2, recombinant human TNFR2 antigen …. The experiment in a line: ELISA, coated recombinant human TNFR2. The method, then: (§2) After TMB development, the detection was performed using microplate reader: dual wavelength 450 nm/655 nm detection, and results were calculated by OD₄₅₀-OD₆₅₅.
Take B8: the EC50 came out at 0.0465 µg/mL.

In a further experiment the target is T3, human TNFR2 on the cell membrane. The experiment in a line: flow cytometry, CHO-TNFR2 cells; CHO-TNFR2 cells. The method in brief:
(§3)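 To build the cell line, CHO cells received a pcDNA3.4 construct encoding human TNFR2, underwent drug selection and were single-clone sorted. Serial antibody dilutions were incubated with these cells in 96-deep-well plates, followed by washing and detection with a fluorescent anti-IgG secondary antibody on a Beckman CytoFLEX. The reported EC50 is taken from the dilution series.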
As for B1, a half-maximal response (EC50) required 0.144 nM.
On the same count and under the same terms, next, B2: 0.184 nM.
Still for that read-out and setting: to B3 belongs 0.2 nM; to B4, 0.171 nM.
For B5, the EC50 was determined as 0.006 nM.
On the same count and under the same terms, next, B6: 0.01 nM; B7: 0.153 nM.

The target is the same in another experiment. The experiment in a line: flow cytometry on CHO-TNFR2 cells. A digest of the protocol:
as §3
Regarding B1, the 50% effective concentration (EC50) was determined as 0.0214 µg/mL.
The molecule B2 showed an EC50 of 0.0275 µg/mL.
In turn, B3 yielded a 50% effective concentration (EC50) of 0.0299 µg/mL.
With B4, a half-maximal effect (EC50) was put at 0.0256 µg/mL.
The same measure, in the same setting: next, B5: 0.0009 µg/mL; B6: 0.0014 µg/mL; B7: 0.0229 µg/mL.

The next experiment has the same target. The experiment in a line: flow cytometry on CHO-TNFR2 cells. The source holds these as a separate data set. The method in brief: as §3
As for B9, the EC50 is 0.0217 µg/mL and 0.145 nM.
With B10, the EC50 is 0.0587 µg/mL and 0.394 nM.
In the case of B11, the EC50 was 0.0129 µg/mL and 0.087 nM.

The target of another experiment is T1, TNFR2-His (Sino Biological, 10417-H08H, …). The experiment in a line: ELISA, plate coated with TNFR2-His. The method in brief: as §1
As for B1, the EC50 came to 0.0421 µg/mL.
Consider B2, for which the EC50 turned out to be 0.049 µg/mL.
The molecule B3 displayed an EC50 of 0.0404 µg/mL.
B4 gave an EC50 of 0.0427 µg/mL.
In turn, B5 returned a half-maximal effective concentration (EC50) of 0.0141 µg/mL.
Turning to B6, the EC50 is 0.014 µg/mL.
On to B7, for which the EC50 worked out at 0.0502 µg/mL.

The target is the same in the next experiment. The experiment in a line: BLI, antibody captured on AHC probe, TNFR2 in solution. A digest of the protocol: (§4)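 On an Octet run in Basic Kinetics mode, bio-layer interferometry was used to obtain Kon, koff and Kd from kinetic association measurements. Antibodies (50 nM in Q buffer) were held on antibody-capture sensors before exposure to recombinant human TNFR2 in a 2-fold dilution series in Q buffer from a top concentration of 100 nM.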
In turn, B9 had a Kd of 2.8 nM, a koff of 0.0035 s⁻¹ and a kon of 1.25e+06 M⁻¹ s⁻¹.
B10 showed a Kd of 1.7 nM, a koff of 0.00183 s⁻¹ and a kon of 1.08e+06 M⁻¹ s⁻¹.
Molecule B11 returned a Kd of 3.25 nM, a koff of 0.00437 s⁻¹ and a kon of 1.34e+06 M⁻¹ s⁻¹.

A further experiment shares this target. The experiment in a line: BLI, antibody captured on AHC probe, TNFR2-His in solution. The method in brief: as §4
On to B1, for which the Kd is 7.3 nM, the koff turned out to be 0.00205 s⁻¹ and the kon was 280000 M⁻¹ s⁻¹.
Molecule B2 came in with a Kd of 5.1 nM, a koff of 0.00161 s⁻¹ and a kon of 316000 M⁻¹ s⁻¹.
Consider B3, for which the Kd came out at 7.28 nM, the koff worked out at 0.0022 s⁻¹ and the on-rate constant (kon) came to 302000 M⁻¹ s⁻¹.
Take B4: the Kd came to 9.76 nM, the dissociation rate constant (koff) stood at 0.00255 s⁻¹ and the on-rate (kon) was 261000 M⁻¹ s⁻¹.
In turn, B5 had a Kd of 4.79 nM, a koff of 0.00115 s⁻¹ and a kon of 239000 M⁻¹ s⁻¹.
In the case of B6, the Kd was 7.29 nM, the koff came out at 0.00163 s⁻¹ and the on-rate (kon) is 223000 M⁻¹ s⁻¹.
B7 yielded a Kd of 5.96 nM, an off-rate (koff) of 0.00171 s⁻¹ and a kon of 287000 M⁻¹ s⁻¹.

For a further experiment the target is unchanged. The experiment in a line: ELISA, plate coated with TNFR2-His (second test). The method in brief: as §1
Regarding B9, the EC50 was 0.0273 µg/mL and 0.183 nM.
Same read-out and setting: to B10 belongs 0.0262 µg/mL and 0.176 nM; to B11, 0.0353 µg/mL and 0.237 nM.

Another experiment addresses T2, recombinant human TNFR2 antigen …. The experiment in a line: ELISA, plate coated with recombinant human TNFR2 antigen. The method, then:
as §2
On to B8, for which the EC50 was 0.312 nM.

Another experiment has as its target T4, recombinant cynomolgus monkey TNFR2 …. The experiment in a line: ELISA, plate coated with recombinant cynomolgus monkey TNFR2. The method, then:
as §2
Using the same method as above, the TNFR2 antigens of cynomolgus monkey and mouse (Sino Biological, 90102-C021 and 50128-M08H) were coated separately. The anti-human TNFR2 mouse monoclonal antibodies to be tested were gradient diluted, then added with the anti-mouse Fab segment secondary antibody (Jackson Immuno Research, 515-035-072), and TMB development was performed. ELISA was used to detect the binding of 8 strains of mouse monoclonal antibodies to recombinant mouse TNFR2 (mTNFR2) and cynomolgus monkey TNFR2 (Cyno. TNFR2).
For the molecule B8, the EC50 is > 1 µg/mL and > 6.7 nM.
